Laboratory results: patent US20240139329A1 (CALIFORNIA INSTITUTE OF TECHNOLOGY, published 2024)

B1: AAV9-X1.1 (other)
chain: MAADGYLPDWLEDNLSEGIREWWALKPGAPQPKANQQHQDNARGLVLPGYKYLGPGNGLDKGEPVNAADAAALEHDKAYDQQLKAGDNPYLKYNHADAEFQERLKEDTSFGGNLGRAVFQAKKRLLEPLGLVEEAAKTAPGKKRPVEQSPQEPDSSAGIGKSGAQPAKKRLNFGQTGDTESVPDPQPIGEPPAAPSGVGSLTMASGGGAPVADNNEGADGVGSSSGNWHCDSQWLGDRVITTSTRTWALPTYNNHLYKQISNSTSGGSSNDNAYFGYSTPWGYFDFNRFHCHFSPRDWQRLINNNWGFRPKRLNFKLFNIQVKEVTDNNGVKTIANNLTSTVQVFTDSDYQLPYVLGSAHEGCLPPFPADVFMIPQYGYLTLNDGSQAVGRSSFYCLEYFPSQMLRTGNNFQFSYEFENVPFHSSYAHSQSLDRLMNPLIDQYLYYLSRTIDGAATKNQTLKFSVAGPSNMAVQGRNYIPGPSYRQQRVSTTVTQNNNSEFAWPGASSWALNGRNSLMNPGPAMASHKEGEDRFFPLSGSLIFGKQGTGRDNVDADKVMITNEEEIKTTNPVATESYGQVATNHQSAQGNNTRSVAQAQTGWVQNQGILPGMVWQDRDVYLQGPIWAKIPHTDGNFHPSPLMGGFGMKHPPPQILIKNTPVPADPPTAFNKDKLNSFITQYSTGQVSVEIEWELQKENSKRWNPEIQYTSNYYKSNNVEFAVNTEGVYSEPRPIGTRYLTRNL
notes: also called AAV-X1.1; X1B10
B2: AAV.CAP-Mac (other)
chain: MAADGYLPDWLEDNLSEGIREWWALKPGAPQPKANQQHQDNARGLVLPGYKYLGPGNGLDKGEPVNAADAAALEHDKAYDQQLKAGDNPYLKYNHADAEFQERLKEDTSFGGNLGRAVFQAKKRLLEPLGLVEEAAKTAPGKKRPVEQSPQEPDSSAGIGKSGAQPAKKRLNFGQTGDTESVPDPQPIGEPPAAPSGVGSLTMASGGGAPVADNNEGADGVGSSSGNWHCDSQWLGDRVITTSTRTWALPTYNNHLYKQISNSTSGGSSNDNAYFGYSTPWGYFDFNRFHCHFSPRDWQRLINNNWGFRPKRLNFKLFNIQVKEVTDNNGVKTIANNLTSTVQVFTDSDYQLPYVLGSAHEGCLPPFPADVFMIPQYGYLTLNDGSQAVGRSSFYCLEYFPSQMLRTGNNFQFSYEFENVPFHSSYAHSQSLDRLMNPLIDQYLYYLSRTINGSGQNQQTLKFSVAGPSNMAVQGRNYIPGPSYRQQRVSTTVTQNNNSEFAWPGASSWALNGRNSLMNPGPAMASHKEGEDRFFPLSGSLIFGKQGTGRDNVDADKVMITNEEEIKTTNPVATESYGQVATNHQSAQLNTTKPIAQAQTGWVQNQGILPGMVWQDRDVYLQGPIWAKIPHTDGNFHPSPLMGGFGMKHPPPQILIKNTPVPADPPTAFNKDKLNSFITQYSTGQVSVEIEWELQKENSKRWNPEIQYTSNYYKSNNVEFAVNTEGVYSEPRPIGTRYLTRNL
notes: also called CAP-C1

What was measured:
[1] = molecular target: T1, human pancreatic secretory granule membrane major glycoprotein GP2 (GP2), on cells (human, UniProt P55259 29-512); assay: cell microarray screen hit (membrane)
T1 construct: also called glycoprotein 2; hGP2

[2] = molecular target: T2, mouse LRP6-E1E2 (N-half, AA 20-628) tagged with Fc (mouse IgG2a) (mouse, UniProt O88572 20-628); assay: SPR, target-Fc captured on protein A chip, AAV analyte (FIG. 14D)
T2 construct: not shown: mouse IgG2a Fc
T2 sequence: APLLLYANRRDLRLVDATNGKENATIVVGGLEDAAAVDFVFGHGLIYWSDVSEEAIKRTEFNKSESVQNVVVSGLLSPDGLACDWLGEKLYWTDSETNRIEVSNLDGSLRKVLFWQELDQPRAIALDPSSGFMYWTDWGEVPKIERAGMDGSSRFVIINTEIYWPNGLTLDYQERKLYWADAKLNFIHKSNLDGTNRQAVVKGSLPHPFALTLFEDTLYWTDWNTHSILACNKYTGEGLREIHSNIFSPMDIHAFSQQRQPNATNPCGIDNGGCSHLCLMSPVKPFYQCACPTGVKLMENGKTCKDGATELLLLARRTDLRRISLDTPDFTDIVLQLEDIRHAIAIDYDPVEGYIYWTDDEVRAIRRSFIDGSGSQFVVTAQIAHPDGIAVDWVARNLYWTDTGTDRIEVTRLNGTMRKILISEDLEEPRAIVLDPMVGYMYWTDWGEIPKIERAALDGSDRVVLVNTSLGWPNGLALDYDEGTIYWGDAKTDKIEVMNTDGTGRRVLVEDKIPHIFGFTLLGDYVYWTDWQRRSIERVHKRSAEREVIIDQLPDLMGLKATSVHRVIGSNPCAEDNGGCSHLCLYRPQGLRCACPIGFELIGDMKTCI

[3] = molecular target: T3, mouse LRP6-E3E4 (C-half, AA 629-1244) tagged with Fc (mouse IgG2a) (mouse, UniProt O88572 629-1244); assay: as above
T3 construct: not shown: mouse IgG2a Fc
T3 sequence: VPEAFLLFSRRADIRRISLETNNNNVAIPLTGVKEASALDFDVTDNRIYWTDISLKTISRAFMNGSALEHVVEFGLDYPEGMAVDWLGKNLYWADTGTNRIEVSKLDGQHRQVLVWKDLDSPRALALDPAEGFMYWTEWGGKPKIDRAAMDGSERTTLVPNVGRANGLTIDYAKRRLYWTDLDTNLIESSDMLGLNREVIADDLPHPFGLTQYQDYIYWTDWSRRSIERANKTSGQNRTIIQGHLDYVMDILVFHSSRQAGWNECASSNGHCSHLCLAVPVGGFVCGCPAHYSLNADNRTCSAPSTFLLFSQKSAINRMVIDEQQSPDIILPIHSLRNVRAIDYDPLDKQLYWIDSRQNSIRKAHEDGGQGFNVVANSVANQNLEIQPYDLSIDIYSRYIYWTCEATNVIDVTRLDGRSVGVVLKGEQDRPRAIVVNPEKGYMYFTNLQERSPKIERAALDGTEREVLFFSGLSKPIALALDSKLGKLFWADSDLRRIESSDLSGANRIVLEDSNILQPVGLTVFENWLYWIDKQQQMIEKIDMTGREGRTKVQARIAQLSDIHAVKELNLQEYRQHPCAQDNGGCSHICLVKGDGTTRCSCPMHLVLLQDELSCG

[4] = molecular target: T4, human LRP6 extracellular domain (AA 20-1368) tagged with Fc (human IgG1) (human, UniProt O75581 20-1368); assay: validated interaction (cell culture potency assay and/or SPR)
T4 construct: also called human LRP6-Fc; complete human LRP6 extracellular domain; not shown: human IgG1 Fc
T4 sequence: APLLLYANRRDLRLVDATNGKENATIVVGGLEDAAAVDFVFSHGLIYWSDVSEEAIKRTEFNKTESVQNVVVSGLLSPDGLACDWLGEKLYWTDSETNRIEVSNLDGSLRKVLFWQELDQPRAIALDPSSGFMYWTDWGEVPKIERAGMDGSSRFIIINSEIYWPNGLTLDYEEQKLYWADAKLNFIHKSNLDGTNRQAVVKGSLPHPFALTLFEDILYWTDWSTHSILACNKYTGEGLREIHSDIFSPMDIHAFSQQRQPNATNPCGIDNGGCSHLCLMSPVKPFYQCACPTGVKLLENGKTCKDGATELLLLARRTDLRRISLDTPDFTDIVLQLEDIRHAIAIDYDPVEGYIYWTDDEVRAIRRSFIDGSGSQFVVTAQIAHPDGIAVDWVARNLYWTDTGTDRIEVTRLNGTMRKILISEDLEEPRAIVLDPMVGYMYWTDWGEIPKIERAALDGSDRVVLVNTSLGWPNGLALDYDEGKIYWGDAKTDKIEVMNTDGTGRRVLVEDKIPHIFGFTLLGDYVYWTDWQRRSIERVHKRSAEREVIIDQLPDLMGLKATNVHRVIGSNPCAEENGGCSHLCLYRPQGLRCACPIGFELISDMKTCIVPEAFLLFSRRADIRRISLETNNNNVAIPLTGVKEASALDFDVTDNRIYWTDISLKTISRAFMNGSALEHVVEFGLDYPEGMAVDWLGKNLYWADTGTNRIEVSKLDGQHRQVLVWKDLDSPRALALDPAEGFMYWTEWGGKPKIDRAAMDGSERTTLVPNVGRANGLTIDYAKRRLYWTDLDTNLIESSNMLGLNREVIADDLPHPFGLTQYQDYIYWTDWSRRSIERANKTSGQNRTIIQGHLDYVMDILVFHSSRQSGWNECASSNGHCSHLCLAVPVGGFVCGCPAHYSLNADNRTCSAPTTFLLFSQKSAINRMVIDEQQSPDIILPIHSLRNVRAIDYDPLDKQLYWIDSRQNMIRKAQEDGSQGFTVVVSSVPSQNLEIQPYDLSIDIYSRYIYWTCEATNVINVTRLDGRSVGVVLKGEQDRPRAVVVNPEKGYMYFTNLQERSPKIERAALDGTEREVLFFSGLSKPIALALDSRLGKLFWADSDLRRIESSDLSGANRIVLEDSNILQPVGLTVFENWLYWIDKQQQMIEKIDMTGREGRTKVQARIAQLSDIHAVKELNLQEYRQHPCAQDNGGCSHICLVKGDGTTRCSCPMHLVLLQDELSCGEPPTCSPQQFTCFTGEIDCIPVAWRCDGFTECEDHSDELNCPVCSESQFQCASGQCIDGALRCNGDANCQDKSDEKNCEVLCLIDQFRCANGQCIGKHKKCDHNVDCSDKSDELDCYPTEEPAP

T1 sequence (P55259 29-512 limits assumed): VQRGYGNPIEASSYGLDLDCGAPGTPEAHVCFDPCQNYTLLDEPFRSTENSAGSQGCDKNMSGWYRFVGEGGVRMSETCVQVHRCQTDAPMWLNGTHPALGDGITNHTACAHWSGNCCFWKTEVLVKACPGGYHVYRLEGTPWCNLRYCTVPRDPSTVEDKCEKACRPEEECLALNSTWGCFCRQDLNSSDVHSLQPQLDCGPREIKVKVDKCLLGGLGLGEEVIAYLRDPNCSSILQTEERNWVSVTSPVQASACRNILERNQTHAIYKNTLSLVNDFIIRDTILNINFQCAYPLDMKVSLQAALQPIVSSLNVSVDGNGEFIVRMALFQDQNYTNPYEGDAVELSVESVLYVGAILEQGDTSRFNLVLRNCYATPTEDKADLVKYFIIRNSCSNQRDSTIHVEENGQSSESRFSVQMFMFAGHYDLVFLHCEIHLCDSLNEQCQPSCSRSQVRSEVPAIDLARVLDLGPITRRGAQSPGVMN

| Binder | binding result [1] | binding result [2] | binding result [3] | binding result [4] |
| --- | --- | --- | --- | --- |
| B1 | binds | binds | no binding | binds |
| B2 | binds | binds | no binding | binds |
